From paper PMC2874997 (Nucleic Acids Research, 2010)
Like-named read-outs stand apart in the source and are kept apart here.

How the values were obtained:
AUC [1] = molecular target: the molecule itself; assay: AUC
AUC [2] = molecular target: the molecule itself; assay: AUC; remark: listed apart in the source
DnaB (native) [3] = molecular target: T1, DnaB (native) (Bacillus subtilis, UniProt P07908 1-472); assay: EMSA
T1 sequence: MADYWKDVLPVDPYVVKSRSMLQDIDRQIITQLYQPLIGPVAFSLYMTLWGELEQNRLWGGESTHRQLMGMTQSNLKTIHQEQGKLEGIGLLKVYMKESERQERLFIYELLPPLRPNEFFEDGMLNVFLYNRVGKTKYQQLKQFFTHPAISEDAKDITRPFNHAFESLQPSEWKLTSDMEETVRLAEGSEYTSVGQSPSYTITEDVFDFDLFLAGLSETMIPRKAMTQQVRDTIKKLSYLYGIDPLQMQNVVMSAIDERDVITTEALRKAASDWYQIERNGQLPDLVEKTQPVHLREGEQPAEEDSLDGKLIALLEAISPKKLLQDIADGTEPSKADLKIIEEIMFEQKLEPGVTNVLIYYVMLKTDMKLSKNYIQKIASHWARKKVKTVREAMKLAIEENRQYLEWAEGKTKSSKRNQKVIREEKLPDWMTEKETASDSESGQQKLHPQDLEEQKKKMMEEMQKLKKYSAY

DnaBN, DnaB(1-300) [4] = molecular target: T2, DnaBN, DnaB(1-300) (Bacillus subtilis, UniProt P07908 1-300); assay: EMSA
T2 sequence: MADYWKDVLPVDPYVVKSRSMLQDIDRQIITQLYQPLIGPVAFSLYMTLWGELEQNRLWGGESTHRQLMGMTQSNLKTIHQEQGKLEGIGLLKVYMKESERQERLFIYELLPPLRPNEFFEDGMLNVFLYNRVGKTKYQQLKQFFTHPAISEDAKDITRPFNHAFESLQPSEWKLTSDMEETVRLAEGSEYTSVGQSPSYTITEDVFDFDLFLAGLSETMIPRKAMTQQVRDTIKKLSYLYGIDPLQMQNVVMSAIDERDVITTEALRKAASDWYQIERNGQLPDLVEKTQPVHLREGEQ

DnaBN, DnaB(1-300) [5] = molecular target: T2, DnaBN, DnaB(1-300); assay: EMSA; remark: listed apart in the source
DnaB (native) [6] = molecular target: T1, DnaB (native); assay: EMSA; remark: listed apart in the source
DnaBN, DnaB(1-300) [7] = molecular target: T2, DnaBN, DnaB(1-300); assay: EMSA; remark: listed apart in the source

B1: DnaBN, DnaB residues 1-300 (N-terminal domain plus the central domain) (domain or fragment, B. subtilis, UniProt P07908 1-300, looked up)
chain: MADYWKDVLPVDPYVVKSRSMLQDIDRQIITQLYQPLIGPVAFSLYMTLWGELEQNRLWGGESTHRQLMGMTQSNLKTIHQEQGKLEGIGLLKVYMKESERQERLFIYELLPPLRPNEFFEDGMLNVFLYNRVGKTKYQQLKQFFTHPAISEDAKDITRPFNHAFESLQPSEWKLTSDMEETVRLAEGSEYTSVGQSPSYTITEDVFDFDLFLAGLSETMIPRKAMTQQVRDTIKKLSYLYGIDPLQMQNVVMSAIDERDVITTEALRKAASDWYQIERNGQLPDLVEKTQPVHLREGEQ
Question: What does the source list for B1?
Answer: Kd (AUC [1]): 500 nM; stoichiometry N (AUC [1]): 4

B2: DnaB(1-365), C-terminally truncated DnaB (domain or fragment, B. subtilis, UniProt P07908 1-365, looked up)
chain: MADYWKDVLPVDPYVVKSRSMLQDIDRQIITQLYQPLIGPVAFSLYMTLWGELEQNRLWGGESTHRQLMGMTQSNLKTIHQEQGKLEGIGLLKVYMKESERQERLFIYELLPPLRPNEFFEDGMLNVFLYNRVGKTKYQQLKQFFTHPAISEDAKDITRPFNHAFESLQPSEWKLTSDMEETVRLAEGSEYTSVGQSPSYTITEDVFDFDLFLAGLSETMIPRKAMTQQVRDTIKKLSYLYGIDPLQMQNVVMSAIDERDVITTEALRKAASDWYQIERNGQLPDLVEKTQPVHLREGEQPAEEDSLDGKLIALLEAISPKKLLQDIADGTEPSKADLKIIEEIMFEQKLEPGVTNVLIYYVMLK
Question: For B2, which “stoichiometry N” value (AUC [2]) is on record?
Answer: 4

B3: DnaB(1-428), C-terminally truncated DnaB (domain or fragment, B. subtilis, UniProt P07908 1-428, looked up)
chain: MADYWKDVLPVDPYVVKSRSMLQDIDRQIITQLYQPLIGPVAFSLYMTLWGELEQNRLWGGESTHRQLMGMTQSNLKTIHQEQGKLEGIGLLKVYMKESERQERLFIYELLPPLRPNEFFEDGMLNVFLYNRVGKTKYQQLKQFFTHPAISEDAKDITRPFNHAFESLQPSEWKLTSDMEETVRLAEGSEYTSVGQSPSYTITEDVFDFDLFLAGLSETMIPRKAMTQQVRDTIKKLSYLYGIDPLQMQNVVMSAIDERDVITTEALRKAASDWYQIERNGQLPDLVEKTQPVHLREGEQPAEEDSLDGKLIALLEAISPKKLLQDIADGTEPSKADLKIIEEIMFEQKLEPGVTNVLIYYVMLKTDMKLSKNYIQKIASHWARKKVKTVREAMKLAIEENRQYLEWAEGKTKSSKRNQKVIREEKLP
Question: Which “stoichiometry N” value (AUC [2]) does the source give for B3 here?
Answer: 4

Question: What does the source list for TTTTTTTTTTTTTTTTTTTTTTTTTTTTTTTTTTTTTTTTTTTTT (ssDNA) [dT45]?
Answer: binding result (DnaB (native) [3]): binds; binding result (DnaBN, DnaB(1-300) [4]): binds

B4: dT90 (ssDNA)
DNA: TTTTTTTTTTTTTTTTTTTTTTTTTTTTTTTTTTTTTTTTTTTTTTTTTTTTTTTTTTTTTTTTTTTTTTTTTTTTTTTTTTTTTTTTTT
Question: Does B4 bind (DnaBN, DnaB(1-300) [5])?
Answer: binds

Question: Does B4 bind (DnaB (native) [6])?
Answer: binds

B5: dT135 (ssDNA)
DNA: TTTTTTTTTTTTTTTTTTTTTTTTTTTTTTTTTTTTTTTTTTTTTTTTTTTTTTTTTTTTTTTTTTTTTTTTTTTTTTTTTTTTTTTTTTTTTTTTTTTTTTTTTTTTTTTTTTTTTTTTTTTTTTTTTTTTTTT
Question: Does B5 bind (DnaBN, DnaB(1-300) [7])?
Answer: binds

Question: Does B5 bind (DnaB (native) [6])?
Answer: binds
